Laboratory results: patent US11278600B2, “Human alpha-galactosidase variants” (Codexis, Inc., priority 2014, dated 2022)

Assays:
Type in all cases: biochemical
[1] = HTP-analysis of yeast culture supernatants, no challenge (MUGal hydrolysis); conditions: activity of the variant/activity of WT GLA (SEQ ID NO: 5), yeast supernatant
Method in brief: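 GLA variants expressed in yeast INVSc1, secreted into SD-Ura broth over 66-84 h at 30° C; clarified supernatants tested without challenge. Supernatant mixed with McIlvaine buffer pH 4.8 and 2 mM MUGal (citrate/KCl, pH 4.6), 37° C for 30-180 min, carbonate-quenched, fluorescence Ex 355/Em 448 nm.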

[2] = HTP-analysis of supernatants pretreated with acid (MUGal hydrolysis); conditions: challenge at pH 4.2; activity of the variant/activity of WT GLA (SEQ ID NO: 5); yeast supernatant
Method in brief: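 Fluorescence of MUGal hydrolysis (Ex. 355 nm, Em. 448 nm) is read after sodium carbonate quench. The enzyme source is INVSc1 yeast culture supernatant, first exposed to pH 3.3-4.3 McIlvaine buffer at 37° C. for 1-3 h, then reacted at pH 4.8 for 30-180 minutes.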

[3] = HTP-analysis of supernatants pretreated with base (MUGal hydrolysis); conditions: challenge at pH 7.1; activity of the variant/activity of WT GLA (SEQ ID NO: 5); yeast supernatant
Method in brief: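 GLA variants were secreted by transformed INVSc1 yeast grown 66-84 h at 30° C. Supernatants were exposed to neutral-to-basic buffers (pH 7.0-9.7) at 37° C for 1-18 h, then assayed with MUGal in acidic citrate/McIlvaine buffer, with fluorescence read after quenching.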

Row | Molecule | Relative Activity of GLA Variants After No Challenge (NC) [1] | Relative Activity of GLA Variants After Challenge at pH 4.2 [2] | Relative Activity of GLA Variants After Challenge at pH 7.1 [3]
1 | 75 (protein, Synthetic Polypeptide sequence of Variant No. 75 of mature Human GLA) LDNGLARTPTMGWLHWERFMCNLDCQEEPDSCISEKLFMEMAELMVSEGWKDAGYEYLCIDDCWMAPQRDSEGRLQADPQRFPHGIRQLANYVHSKGLKLGIYADVGNKTCAGFPGSFGYYDIDAQTFADWGVDLLKFDGCYCDSLENLADGYKHMSLALNRTGRSIVYSCEWPLYMWPFQKPNYTEIRQYCNHWRNFADIDDSWQSIKSILDWTSFNQERIVDVAGPGGWNDPDMLVIGNFGLSWNQQVTQMALWAIMAAPLFMSNDLRHISPQAKALLQDKDVIAINQDPLGKQGYQLRQGDNFEVWERPLSGLAWAVAMINRQEIGGPRSYTIAVASLGKGVACNPACFITQLLPVKRKLGFYEWTSRLRSHINPTGTVLLQLENTMQMSKDLLL | + (+ = 0.5 to 1.5 relative activity over WT GLA (SEQ ID NO: 5)) | +++ (+++ = >2.5 relative activity over WT GLA (SEQ ID NO: 5)) | ++ (++ = >1.5 to 2.5 relative activity over WT GLA (SEQ ID NO: 5))
2 | 78 (protein, Synthetic Polypeptide sequence of Variant No. 78 of mature Human GLA) LDNGLARTPTMGWLHWERFMCNLDCQEEPDSCISEKLFMEMAELMVSEGWKDAGYEYLCIDDCWMAPQRDSEGRLQADPQRFPHGIRQLANYVHSKGLKLGIYADVGNKTCAGFPGSFGYYDIDAQTFADWGVDLLKFDGCYCDSLENLADGYKHMSLALNRTGRSIVYSCEWPLYMWPFQKPNYTEIRQYCNHWRNFADIDDSWKSIKSILDWTSFNQERIVDVAGPGGWNDPDMLVIGNFGLSWNQQVTQMALWAIMAAPLFMSNDLRHISPQAKALLQDKDVIAINQDPLGKQGYQLRQGDNFEVWERPLSGLAWAVAMINRQEIGGPRSYTIAVASLGDGVACNPACFITQLLPVKRKLGFYEWTSRLRSHINPTGTVLLQLENTMQMSKDLLL | ++ (++ = >1.5 to 2.5 relative activity over WT GLA (SEQ ID NO: 5)) | ++ (++ = >1.5 to 2.5 relative activity over WT GLA (SEQ ID NO: 5)) | ++ (++ = >1.5 to 2.5 relative activity over WT GLA (SEQ ID NO: 5))
3 | 80 (protein, Synthetic Polypeptide sequence of Variant No. 80 of mature Human GLA) LDNGLARTPTMGWLHWERFMCNLDCQEEPDSCISEKLFMEMAELMVSEGWKDAGYEYLCIDDCWMAPQRDSEGRLQADPQRFPHGIRQLANYVHSKGLKLGIYADVGNKTCAGFPGSFGYYDIDAQTFADWGVDLLKFDGCYCDSLENLADGYKHMSLALNRTGRSIVYSCEWPLYMWPFQKPNYTEIRQYCNHWRNFADIDDSWKSIKSILDWTSFNQERIVDVAGPGGWNDPDMLVIGNFGLSWNQQVTQMALWAIMAAPLFMSNDLRHISPQAKALLQDKDVIAINQDPLGKQGYQLRQGDNFEVWERPLSGLAWAVAMINRQEIGGPRSYTIAVASLGKGVACNPACFITQLLPVKRQLGFYEWTSRLRSHINPTGTVLLQLENTMQMSKDLLL | + (+ = 0.5 to 1.5 relative activity over WT GLA (SEQ ID NO: 5)) | + (+ = 0.5 to 1.5 relative activity over WT GLA (SEQ ID NO: 5)) | + (+ = 0.5 to 1.5 relative activity over WT GLA (SEQ ID NO: 5))
4 | 77 (protein, Synthetic Polypeptide sequence of Variant No. 77 of mature Human GLA) LDNGLARTPTMGWLHWERFMCNLDCQEEPDSCISEKLFMEMAELMVSEGWKDAGYEYLCIDDCWMAPQRDSEGRLQADPQRFPHGIRQLANYVHSKGLKLGIYADVGNKTCAGFPGSFGYYDIDAQTFADWGVDLLKFDGCYCDSLENLADGYKHMSLALNRTGRSIVYSCEWPLYMWPFQKPNYTEIRQYCNHWRNFADIDDSWTSIKSILDWTSFNQERIVDVAGPGGWNDPDMLVIGNFGLSWNQQVTQMALWAIMAAPLFMSNDLRHISPQAKALLQDKDVIAINQDPLGKQGYQLRQGDNFEVWERPLSGLAWAVAMINRQEIGGPRSYTIAVASLGKGVACNPACFITQLLPSKRKLGFYEWTSRLRSHINPTGTVLLQLENTMQMSKDLLL | + (+ = 0.5 to 1.5 relative activity over WT GLA (SEQ ID NO: 5)) | ++ (++ = >1.5 to 2.5 relative activity over WT GLA (SEQ ID NO: 5)) | + (+ = 0.5 to 1.5 relative activity over WT GLA (SEQ ID NO: 5))
5 | 79 (protein, Synthetic Polypeptide sequence of Variant No. 79 of mature Human GLA) LDNGLARTPTMGWLHWERFMCNLDCQEEPDSCISEKLFMEMAELMVSEGWKDAGYEYLCIDDCWMAPQRDSEGRLQADPQRFPHGIRQLANYVHSKGLKLGIYADVGNKTCAGFPGSFGYYDIDAQTFADWGVDLLKFDGCYCDSLENLADGYKHMSLALNRTGRSIVYSCEWPLYMWPFQKPNYTEIRQYCNHWRNFADIDDSWKSIKSILDWTSFNQERIVDVAGPGGWNDPDMLVIGNFGLSWNQQVTQMALWAIMAAPLFMSNDLRHISPQAKALLQDKDVIAINQDPLGKQGYQLRQGDNFEVWERPLSGLAWAVAMINRQEIGGPRSYTIAVASLGGGVACNPACFITQLLPVKRKLGFYEWTSRLRSHINPTGTVLLQLENTMQMSKDLLL | ++ (++ = >1.5 to 2.5 relative activity over WT GLA (SEQ ID NO: 5)) | ++ (++ = >1.5 to 2.5 relative activity over WT GLA (SEQ ID NO: 5)) | ++ (++ = >1.5 to 2.5 relative activity over WT GLA (SEQ ID NO: 5))
6 | 76 (protein, Synthetic Polypeptide sequence of Variant No. 76) LDNGLARTPTMGWLHWERFMCNLDCQEEPDSCISEKLFMEMAELMVSEGWKDAGYEYLCIDDCWMAPQRDSEGRLQADPQRFPHGIRQLANYVHSKGLKLGIYADVGNKTCAGFPGSFGYYDIDAQTFADWGVDLLKFDGCYCDSLENLADGYKHMSLALNRTGRSIVYSCEWPLYMWPFQKPNYTEIRQYCNHWRNFADIDDSWRSIKSILDWTSFNQERIVDVAGPGGWNDPDMLVIGNFGLSWNQQVTQMALWAIMAAPLFMSNDLRHISPQAKALLQDKDVIAINQDPLGKQGYQLRQGDNFEVWERPLSGLAWAVAMINRQEIGGPRSYTIAVASLGKGVACNPACFITQLLPVKRKLGFYEWTSRLRSHINPTGTVLLQLENTMQMSLKDLL | + (+ = 0.5 to 1.5 relative activity over WT GLA (SEQ ID NO: 5)) | +++ (+++ = >2.5 relative activity over WT GLA (SEQ ID NO: 5)) | ++ (++ = >1.5 to 2.5 relative activity over WT GLA (SEQ ID NO: 5))
